From patent publication US20090325259A1, “USE OF ADHESION MOLECULES AS BOND STRESS-ENHANCED NANOSCALE BINDING SWITCHES” (priority 2002, published 2009)

Key:
[1] = molecular target: Monomannosylated BSA (monomannose conjugated to bovine serum albumin) (bovine) (UniProt P02769); assay: parallel plate flow chamber; new bacteria appearing on 1Man-BSA surface
[2] = molecular target: Monomannosylated BSA (monomannose conjugated to bovine serum albumin) (bovine) (UniProt P02769)

Sequence of Monomannosylated BSA (monomannose conjugated to bovine serum albumin) (bovine) (P02769 25-607 limits assumed): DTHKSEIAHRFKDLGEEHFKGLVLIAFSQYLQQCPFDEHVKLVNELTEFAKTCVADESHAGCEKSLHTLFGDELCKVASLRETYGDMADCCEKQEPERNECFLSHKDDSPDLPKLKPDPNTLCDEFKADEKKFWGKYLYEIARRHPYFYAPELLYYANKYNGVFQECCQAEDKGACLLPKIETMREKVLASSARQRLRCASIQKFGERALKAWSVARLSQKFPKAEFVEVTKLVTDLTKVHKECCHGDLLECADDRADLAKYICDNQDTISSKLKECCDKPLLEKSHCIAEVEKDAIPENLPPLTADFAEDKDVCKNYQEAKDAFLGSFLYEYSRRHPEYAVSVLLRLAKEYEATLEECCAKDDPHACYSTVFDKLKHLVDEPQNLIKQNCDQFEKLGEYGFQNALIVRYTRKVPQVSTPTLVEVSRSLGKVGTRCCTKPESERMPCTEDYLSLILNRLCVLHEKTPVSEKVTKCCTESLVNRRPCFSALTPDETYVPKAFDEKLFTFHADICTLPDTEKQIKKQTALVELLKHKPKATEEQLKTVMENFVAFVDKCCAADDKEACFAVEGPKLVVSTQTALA

FimH-f18 (FimH adhesin variant of intestinal E. coli strain F18), in type I fimbriae on recombinant E. coli (from UniProt P08191 22-300)
initial attachments per minute in the field of view, at 0.5 dynes/cm^2 (attachments per minute) [1]: 102 | initial attachments per minute in the field of view, at 3.6 dynes/cm^2 (attachments per minute) [1]: 64 | initial attachments per minute in the field of view, at 7 dynes/cm^2 (attachments per minute) [1]: 32 | first-order rate constant of the decline of stationary bacteria [2]: 3 s⁻¹
